Experimental data taken from PMC12643061, “Structural dynamics of the plant hormone receptor ETR1 in a native‐like membrane environment” (Febs Letters, 2025).

Target: the molecule itself
Experiment: SEC; ETR1 in DMPC/MSP1E3D1 nanodiscs; Superose 6 Increase 10/300 GL, 50 mM Tris-HCl pH 8.0, 200 mM NaCl, 0.3 mL/min; column calibrated with protein standards; elution volume 16.77 mL, ~450 kDa

B1: ethylene receptor 1 (ETR1) from Arabidopsis thaliana, full-length, with N-terminal 10xHis-tag (receptor, UniProt P49333 1-738, looked up)
chain: MEVCNCIEPQWPADELLMKYQYISDFFIAIAYFSIPLELIYFVKKSAVFPYRWVLVQFGAFIVLCGATHLINLWTFTTHSRTVALVMTTAKVLTAVVSCATALMLVHIIPDLLSVKTRELFLKNKAAELDREMGLIRTQEETGRHVRMLTHEIRSTLDRHTILKTTLVELGRTLALEECALWMPTRTGLELQLSYTLRHQHPVEYTVPIQLPVINQVFGTSRAVKISPNSPVARLRPVSGKYMLGEVVAVRVPLLHLSNFQINDWPELSTKRYALMVLMLPSDSARQWHVHELELVEVVADQVAVALSHAAILEESMRARDLLMEQNVALDLARREAETAIRARNDFLAVMNHEMRTPMHAIIALSSLLQETELTPEQRLMVETILKSSNLLATLMNDVLDLSRLEDGSLQLELGTFNLHTLFREVLNLIKPIAVVKKLPITLNLAPDLPEFVVGDEKRLMQIILNIVGNAVKFSKQGSISVTALVTKSDTRAADFFVVPTGSHFYLRVKVKDSGAGINPQDIPKIFTKFAQTQSLATRSSGGSGLGLAISKRFVNLMEGNIWIESDGLGKGCTAIFDVKLGISERSNESKQSGIPKVPAIPRHSNFTGLKVLVMDENGVSRMVTKGLLVHLGCEVTTVSSNEECLRVVSHEHKVVFMDVCMPGVENYQIALRIHEKFTKQRHQRPLLVALSGNTDKSTKEKCMSFGLDGVLLKPVSLDNIRDVLSDLLEPRVLYEGM
notes: Ethylene receptor 1 (ETR1), Arabidopsis thaliana, full length, 738 residues, 82.5 kDa per monomer; Membrane protein, measured embedded in DMPC nanodiscs held by the scaffold protein MSP1E3D1 (His-tag cleaved by TEV); No cleavage of the ETR1 His-tag is described; the loaded nanodiscs were eluted from Ni-INDIGO beads by it just before SEC; also called ETR1_10xHis; ethylene receptor ETR1; source: E. …
- stoichiometry N: 2
